{
  "source": "paper doi:10.1101/800508",
  "about": "(bioRxiv, 2019)",
  "binders": {"B1": {"name": "Sth1, ATPase subunit of RSC (enzyme)", "chain": "MLQEQSELMSTVMNNTPTTVAALAAVAAASETNGKLGSEEQPEITIPKPRSSAQLEQLLYRYRAIQNHPKENKLEIKAIEDTFRNISRDQDIYETKLDTLRKSIDKGFQYDEDLLNKHLVALQLLEKDTDVPDYFLDLPDTKNDNTTAIEVDYSEKKPIKISADFNAKAKSLGLESKFSNATKTALGDPDTEIRISARISNRINELERLPANLGTYSLDDCLEFITKDDLSSRMDTFKIKALVELKSLKLLTKQKSIRQKLINNVASQAHHNIPYLRDSPFTAAAQRSVQIRSKVIVPQTVRLAEELERQQLLEKRKKERNLHLQKINSIIDFIKERQSEQWSRQERCFQFGRLGASLHNQMEKDEQKRIERTAKQRLAALKSNDEEAYLKLLDQTKDTRITQLLRQTNSFLDSLSEAVRAQQNEAKILHGEEVQPITDEEREKTDYYEVAHRIKEKIDKQPSILVGGTLKEYQLRGLEWMVSLYNNHLNGILADEMGLGKTIQSISLITYLYEVKKDIGPFLVIVPLSTITNWTLEFEKWAPSLNTIIYKGTPNQRHSLQHQIRVGNFDVLLTTYEYIIKDKSLLSKHDWAHMIIDEGHRMKNAQSKLSFTISHYYRTRNRLILTGTPLQNNLPELWALLNFVLPKIFNSAKTFEDWFNTPFANTGTQEKLELTEEETLLIIRRLHKVLRPFLLRRLKKEVEKDLPDKVEKVIKCKLSGLQQQLYQQMLKHNALFVGAGTEGATKGGIKGLNNKIMQLRKICNHPFVFDEVEGVVNPSRGNSDLLFRVAGKFELLDRVLPKFKASGHRVLMFFQMTQVMDIMEDFLRMKDLKYMRLDGSTKTEERTEMLNAFNAPDSDYFCFLLSTRAGGLGLNLQTADTVIIFDTDWNPHQDLQAQDRAHRIGQKNEVRILRLITTDSVEEVILERAMQKLDIDGKVIQAGKFDNKSTAEEQEAFLRRLIESETNRDDDDKAELDDDELNDTLARSADEKILFDKIDKERMNQERADAKAQGLRVPPPRLIQLDELPKVFREDIEEHFKKEDSEPLGRIRQKKRVYYDDGLTEEQFLEAVEDDNMSLEDAIKKRREARERRRLRQNGTKENEIETLENTPEASETSLIENNSFTAAVDEETNADKETTASRSKRRSSRKKRTISIVTAEDKENTQEESTSQENGGAKVEEEVKSSSVEIINGSESKKKKPKLTVKIKLNKTTVLENNDGKRAEEKPESKSPAKKTAAKKTKTKSKSLGIFPTVEKLVEEMREQLDEVDSHPRTSIFEKLPSKRDYPDYFKVIEKPMAIDIILKNCKNGTYKTLEEVRQALQTMFENARFYNEEGSWVYVDADKLNEFTDEWFKEHSS"}, "B2": {"name": "Arp7, actin-related protein, subunit of RSC (natural protein)", "chain": "MTLNRKCVVIHNGSHRTVAGFSNVELPQCIIPSSYIKRTDEGGEAEFIFGTYNMIDAAAEKRNGDEVYTLVDSQGLPYNWDALEMQWRYLYDTQLKVSPEELPLVITMPATNGKPDMAILERYYELAFDKLNVPVFQIVIEPLAIALSMGKSSAFVIDIGASGCNVTPIIDGIVVKNAVVRSKFGGDFLDFQVHERLAPLIKEENDMENMADEQKRSTDVWYEASTWIQQFKSTMLQVSEKDLFELERYYKEQADIYAKQQEQLKQMDQQLQYTALTGSPNNPLVQKKNFLFKPLNKTLTLDLKECYQFAEYLFKPQLISDKFSPEDGLGPLMAKSVKKAGASINSMKANTSTNPNGLGTSHINTNVGDNNSTASSSNISPEQVYSLLLTNVIITGSTSLIEGMEQRIIKELSIRFPQYKLTTFANQVMMDRKIQGWLGALTMANLPSWSLGKWYSKEDYETLKRDRKQSQATNATN"}, "B3": {"name": "Rtt102, subunit of RSC (natural protein)", "chain": "MDPQTLITKANKVSYYGNPTSKESWRYDWYQPSKVSSNVQQPQQQLGDMENNLEKYPFRYKTWLRNQEDEKNLQRESCEDILDLKEFDRRILKKSLMTSHTKGDTSKATGAPSANQGDEALSVDDIRGAVGNSEAIPGLSAGVNNDNTKESKDVKMN"}, "B4": {"name": "Sfh1, subunit of RSC (natural protein)", "chain": "MSHQNQLIPQAYISNFHNRLTNEDDGIPIFTMAQQTRQHKRAKVVNYAEYDNDLFDEFNMNGSNFNNADTHYKDNAVSHENTPALTNGVTMDGSEYNVLENMNGADSIISNNKYDAGSNMVVESLSGLNSNNNASNGPSNKAQAQDIGNAVLPDLQDQHHNPFNILRYPKIRDTFINGKVVSPYRLNTDQETKANANSGEAIMIPITLDIEHMGHTIKDQFLWNYNDDSISPEEFASIYCKDLDMTSATLQTQIANIIKEQLKDLENIAATEIMSDLHVIINLTCNLQDRFFEDNFQWNLNDKSLTPERFATSIVQDLGLTREFIPLISQSLHETILKIKKDWVDGHLIQDHVPNDAAFGYLSGIRLDIDELGSNWCPRVEILTKEEIQKREIEKERNLRRLKRETDRLSRRGRRRLDDLETTMRM"}, "B5": {"name": "Rsc6, subunit of RSC (natural protein)", "chain": "MVTQTNPVPVTYPTDAYIPTYLPDDKVSNLADLKKLIEMDSRLDLYLTRRRLDTSINLPTNTKTKDHPPNKEMLRIYVYNTTESSPRSDSGTPADSGKTTWTLRIEGKLLHESANGKHPFSEFLEGVAVDFKRLKPLGMGKKRKRDSSLSLPLNLQQPEYNDQDSTMGDNDNGEDEDSAEAESREEIVDALEWNYDENNVVEFDGIDIKRQGKDNLRCSITIQLRGVDGGKVQYSPNLATLIGMQTGSVNDAVYSIYKYILINNLFVTEQTEAQDGSNDAEDSSNENNNKNGAGDDDGVEGSTPKDKPELGEVKLDSLLQKVLDTNAAHLPLMNVVQTVNKLVSPLPPIILDYTIDLSKDTTYGATTLDVDVSHILHQPQPQPNLQKEEETDAEDTAKLREITKLALQLNSSAQKYQFFHELSLHPRETLTHYLWSSKQNELVLQGDQYFNEDAARTSDIYSNNNNDRSLMGNISLLYSQGRL"}, "B6": {"name": "Arp9, actin-related protein, subunit of RSC (natural protein)", "chain": "MAPFRQDSILIIYPRSQTTLVQFGLNEETFTVPELEIPTQIYRTTRQDGSYTYHSTNKDNKAELIKPIQNGEIIDISAFTQFLRLIFVSILSDRANKNQDAFEAELSNIPLLLITHHSWSQSDLEIITQYVFESLEINNLIQLPASLAATYSMISLQNCCIIDVGTHHTDIIPIVDYAQLDHLVSSIPMGGQSINDSLKKLLPQWDDDQIESLKKSPIFEVLSDDAKKLSSFDFGNENEDEDEGTLNVAEIITSGRDTREVLEERERGQKVKNVKNSDLEFNTFWDEKGNEIKVGKQRFQGCNNLIKNISNRVGLTLDNIDDINKAKAVWENIIIVGGTTSISGFKEALLGQLLKDHLIIEPEEEKSKREEEAKSVLPAATKKKSKFMTNSTAFVPTIEYVQCPTVIKLAKYPDYFPEWKKSGYSEIIFLGAQIVSKQIFTHPKDTFYITREKYNMKGPAALWDVQF"}, "B7": {"name": "Rsc8, subunit of RSC (natural protein)", "chain": "MSDTEKDKDVPMVDSHEATEEPPTTSTNTPSFPHLAQEQAKEESATLGAEVAHKKINYEQEAQKLEEKALRFLAKQTHPVIIPSFASWFDISKIHEIEKRSNPDFFNDSSRFKTPKAYKDTRNFIINTYRLSPYEYLTITAVRRNVAMDVASIVKIHAFLEKWGLINYQIDPRTKPSLIGPSFTGHFQVVLDTPQGLKPFLPENVIKQEVEGGDGAEPQVKKEFPVNLTIKKNVYDSAQDFNALQDESRNSRQIHKVYICHTCGNESINVRYHNLRARDTNLCSRCFQEGHFGANFQSSDFIRLENNGNSVKKNWSDQEMLLLLEGIEMYEDQWEKIADHVGGHKRVEDCIEKFLSLPIEDNYIREVVGSTLNGKGGDSRDGSVSGSKLMECVNDAVQTLLQGDDKLGKVSDKSREISEKYIEESQAIIQELVKLTMEKLESKFTKLCDLETQLEMEKLKYVKESEKMLNDRLSLSKQILDLNKSLEELNVSKKLVLISEQVDSGIQLVEKDQEGDDEDGNTATGHGVKRVGKEGEEVGEGDSIAKLQPQVYKPWSL"}},
  "test_in_all_cases": "cryo-EM structure",
  "key": {"[1]": {"molecular_target": "histone H4 (Xenopus laevis) (Xenopus laevis, UniProt P62799 2-103)"}, "[2]": {"molecular_target": "B1"}, "Rsc8, subunit of RSC": {"molecular_target": "B7"}, "cryo-EM structure": {"molecular_target": "the molecule itself"}},
  "data": [
    {"binder": "B1", "values": [
      {"measurement": "binding result", "setting": "[1]", "result": "binds"}
    ]},
    {"binder": "B2", "values": [
      {"measurement": "binding result", "setting": "[2]", "result": "binds"}
    ]},
    {"binder": "B3", "values": [
      {"measurement": "binding result", "setting": "[2]", "result": "binds"}
    ]},
    {"binder": "B4", "values": [
      {"measurement": "binding result", "setting": "Rsc8, subunit of RSC", "result": "binds"}
    ]},
    {"binder": "B5", "values": [
      {"measurement": "binding result", "setting": "Rsc8, subunit of RSC", "result": "binds"}
    ]},
    {"binder": "B6", "values": [
      {"measurement": "binding result", "setting": "[2]", "result": "binds"}
    ]},
    {"binder": "B7", "values": [
      {"measurement": "stoichiometry N", "setting": "cryo-EM structure", "result": 2}
    ]}
  ]
}
